Experimental data from the supplement of paper PMC10567573.

B1: PHTF1 (parent)
chain: SRHLNSQVKKTTTRWCHIVRDSDS

Variants of: B1
Assay: protein stability index of a GFP-peptide fusion (GPS, HEK-293T) (PSI 1-6); higher = more stable
Conditions: c terminus: a fixed tail appended
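Also: lentivirally expressed fusions sorted by FACS into six bins by GFP to DsRed ratio, PSI derived from sequencing read proportions per bin multiplied by bin number.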

Protein stability index, by site and new letter:
T11: A 3.08 | C 3.08 | D 2.97 | E 2.11 | F 1.94 | G 2.48 | H 2.95 | I 1.67 | K 2.16 | L 1.58 | M 2.39 | N 1.79 | P 2 | Q 2.43 | R 2.12 | S 1.83 | V 1.13 | W 2.02 | Y 2.41
T12: A 2.1 | C 2.19 | D 2.91 | E 2.68 | F 1.66 | G 1.64 | H 1.31 | I 1.93 | K 1.82 | L 1.53 | M 1.76 | N 1.76 | P 2.71 | Q 2.12 | R 2.09 | S 2.62 | V 1.94 | W 2.36 | Y 1.5
T13: A 2.31 | C 2.73 | D 2.76 | E 2.94 | F 1.81 | G 2.75 | H 2.02 | I 1.41 | K 1.76 | M 2.1 | N 1.91 | P 1.8 | R 2.14 | S 2.05 | V 3.04 | W 1.82 | Y 1.72
R14: A 3.02 | C 1.87 | D 3 | E 3.35 | F 2.04 | G 2.57 | H 2.17 | I 1.94 | K 2.3 | L 2.14 | M 1.6 | N 2.94 | P 2 | Q 2.67 | S 1.91 | T 1.71 | V 3.08 | W 1.65 | Y 2.05
W15: A 2.37 | C 2.74 | D 4.57 | E 4.88 | F 3.71 | G 3.24 | H 3.53 | I 3.36 | K 3.78 | L 2.77 | M 3.22 | N 3.56 | P 3.86 | Q 4.35 | R 3.94 | S 3.84 | T 3.87 | V 3.06 | Y 3.36
C16: A 1.3 | D 3.34 | E 2.34 | F 2.07 | G 3.53 | H 3.28 | I 1.84 | K 2.99 | L 2.79 | N 3.65 | P 2.57 | Q 2.3 | R 2.86 | S 2.14 | T 2.01 | W 2.27 | Y 2.56
H17: A 1.42 | C 1.66 | E 1.29 | F 2.75 | G 2.65 | I 1.65 | K 2.59 | L 1.7 | M 1.91 | N 2.43 | P 2.31 | Q 1.71 | R 2.58 | S 2.31 | T 1.91 | V 1.71 | W 2.62 | Y 2.42
I18: A 2.43 | C 2.13 | D 3.92 | E 3.1 | F 2.82 | G 3.15 | H 2.52 | K 2.77 | L 3.42 | M 2.34 | N 3.3 | P 3.35 | Q 3.09 | R 3.06 | S 3.95 | T 2.17 | V 1.73 | W 2.15 | Y 1.74
V19: A 2.8 | C 2.19 | D 3.23 | E 3.71 | F 1.55 | G 2.4 | H 1.66 | I 1.75 | K 2.3 | L 2.35 | M 2.94 | N 2.55 | P 2.42 | Q 2.81 | R 2.2 | S 2.75 | T 3.13 | W 1.62 | Y 2.44
R20: A 2.31
